Test results taken from US20150079657.

Legend:
Assay in all cases: cell_activity
[1] = test system: ZF(Oct4+286)-p300 (Artificial Sequence); settings: OCT4 mRNA in HEK293; at least 20-fold in K562; H3K27ac increased
[2] = test system: ZF(Oct4+420)-p300 (Artificial Sequence); settings: OCT4 mRNA in HEK293; at least 20-fold in K562; H3K27ac increased
[3] = test system: ZF(Sox2+185)-p300 (Artificial Sequence); settings: SOX2 mRNA in HEK293; nearly 2-fold or greater in K562
[4] = test system: ZF(Sox2+r475)-p300 (Artificial Sequence); settings: SOX2 mRNA in HEK293; nearly 2-fold or greater in K562
Chain of ZF(Sox2+r475)-p300 (Artificial Sequence) (chain, as listed by the source): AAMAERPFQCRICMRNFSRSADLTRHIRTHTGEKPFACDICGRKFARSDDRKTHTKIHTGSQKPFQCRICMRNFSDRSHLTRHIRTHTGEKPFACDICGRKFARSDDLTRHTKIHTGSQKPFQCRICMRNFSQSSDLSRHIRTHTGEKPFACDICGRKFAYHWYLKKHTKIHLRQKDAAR

Chain of ZF(Oct4+286)-p300 (Artificial Sequence) (chain, as listed by the source): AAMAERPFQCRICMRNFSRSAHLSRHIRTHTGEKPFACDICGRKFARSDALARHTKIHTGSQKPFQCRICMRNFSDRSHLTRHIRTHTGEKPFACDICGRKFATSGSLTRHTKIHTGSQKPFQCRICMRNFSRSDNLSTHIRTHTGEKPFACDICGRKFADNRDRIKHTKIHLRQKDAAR
Chain of ZF(Oct4+420)-p300 (Artificial Sequence) (chain, as listed by the source): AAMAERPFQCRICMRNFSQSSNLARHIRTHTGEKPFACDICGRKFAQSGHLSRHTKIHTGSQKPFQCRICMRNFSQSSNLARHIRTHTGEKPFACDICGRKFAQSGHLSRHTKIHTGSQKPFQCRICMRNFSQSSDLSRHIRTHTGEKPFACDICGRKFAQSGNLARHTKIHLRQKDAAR
Chain of ZF(Sox2+185)-p300 (Artificial Sequence) (chain, as listed by the source): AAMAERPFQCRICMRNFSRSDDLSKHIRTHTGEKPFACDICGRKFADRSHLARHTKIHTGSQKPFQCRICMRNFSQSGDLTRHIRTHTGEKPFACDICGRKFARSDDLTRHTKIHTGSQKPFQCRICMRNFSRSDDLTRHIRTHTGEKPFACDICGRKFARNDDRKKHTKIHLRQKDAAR

In the case of OCT4 +286 target site, the activity [1] is reported as over 90 fold.
In the case of OCT4 +420 target site, the activity [2] is reported as over 90 fold.
With SOX2 +185 target site the activity [3] was over 1.5 fold.
SOX2 +r475 target site (reverse strand) gave an activity [4] of over 1.5 fold.
